Columns and labels:
[1] = biological target: Human FcγRIIA, recombinantly expressed extracellular domain (human) (UniProt P12318); experiment: BIAcore 3000, IgG immobilized, FcγR extracellular domain injected, equilibrium fit to a 1:1 binding isotherm
[2] = biological target: Human FcγRIIB, recombinantly expressed extracellular domain (human) (UniProt P31994); experiment: as above
[3] = biological target: Human FcγRIIIA (V158), recombinantly expressed extracellular domain (human) (UniProt P08637); experiment: as above
Sequence of Human FcγRIIIA (V158), recombinantly expressed extracellular domain (human) (P08637 17-208 F176V): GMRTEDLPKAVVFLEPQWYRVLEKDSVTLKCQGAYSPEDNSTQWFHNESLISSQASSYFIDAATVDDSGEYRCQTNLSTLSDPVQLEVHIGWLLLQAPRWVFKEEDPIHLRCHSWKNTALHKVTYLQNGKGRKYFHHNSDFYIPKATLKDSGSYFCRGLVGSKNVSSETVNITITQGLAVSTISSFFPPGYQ

[4] = biological target: Mouse FcγRIIB, recombinantly expressed extracellular domain (mouse) (UniProt P08101); experiment: as above
Sequence of Mouse FcγRIIB, recombinantly expressed extracellular domain (mouse) (P08101 30-210): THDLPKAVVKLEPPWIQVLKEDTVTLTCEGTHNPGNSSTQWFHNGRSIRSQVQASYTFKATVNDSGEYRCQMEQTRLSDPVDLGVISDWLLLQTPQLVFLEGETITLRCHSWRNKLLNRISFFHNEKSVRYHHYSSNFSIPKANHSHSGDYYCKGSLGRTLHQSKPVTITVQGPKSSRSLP

[5] = biological target: Mouse FcγRIII, recombinantly expressed extracellular domain (mouse) (UniProt P08508); experiment: as above
Sequence of Mouse FcγRIII, recombinantly expressed extracellular domain (mouse) (P08508 31-215): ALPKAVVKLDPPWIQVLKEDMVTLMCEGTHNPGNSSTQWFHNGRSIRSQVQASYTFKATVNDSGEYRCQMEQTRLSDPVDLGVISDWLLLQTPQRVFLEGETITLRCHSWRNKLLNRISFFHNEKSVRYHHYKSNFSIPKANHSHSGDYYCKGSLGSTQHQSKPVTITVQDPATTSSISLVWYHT

[6] = biological target: Human FcγRI, recombinantly expressed extracellular domain (human) (UniProt P12314); experiment: BIAcore 3000, IgG immobilized, FcγR extracellular domain injected, equilibrium fit to a 1:1 binding isotherm; Fc variant 16C4-235Y
Sequence of Human FcγRI, recombinantly expressed extracellular domain (human) (P12314 16-292): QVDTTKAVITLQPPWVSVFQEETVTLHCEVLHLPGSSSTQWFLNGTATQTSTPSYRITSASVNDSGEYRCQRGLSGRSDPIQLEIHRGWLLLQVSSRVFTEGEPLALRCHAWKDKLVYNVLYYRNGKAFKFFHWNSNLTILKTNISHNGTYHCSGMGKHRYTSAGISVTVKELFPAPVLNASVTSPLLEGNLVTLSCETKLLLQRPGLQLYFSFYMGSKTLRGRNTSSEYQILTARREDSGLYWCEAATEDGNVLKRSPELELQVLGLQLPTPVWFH

[7] = biological target: Mouse FcγRIV, recombinantly expressed extracellular domain (mouse); experiment: BIAcore 3000, IgG immobilized, FcγR extracellular domain injected, equilibrium fit to a 1:1 binding isotherm
Sequence of Mouse FcγRIV, recombinantly expressed extracellular domain (mouse) (A0A0B4 entry or part of it limits assumed): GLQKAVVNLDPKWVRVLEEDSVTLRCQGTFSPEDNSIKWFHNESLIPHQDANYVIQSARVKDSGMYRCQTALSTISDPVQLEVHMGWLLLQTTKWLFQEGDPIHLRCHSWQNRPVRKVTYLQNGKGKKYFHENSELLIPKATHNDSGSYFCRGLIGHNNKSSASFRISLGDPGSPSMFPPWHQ

[8] = biological target: Human FcγRI, recombinantly expressed extracellular domain (human) (UniProt P12314); experiment: BIAcore 3000, IgG immobilized, FcγR extracellular domain injected, equilibrium fit to a 1:1 binding isotherm; 16C4, parent Fc (no Fc substitution)
[9] = biological target: Human FcγRI, recombinantly expressed extracellular domain (human) (UniProt P12314); experiment: BIAcore 3000, IgG immobilized, FcγR extracellular domain injected, equilibrium fit to a 1:1 binding isotherm; Fc variant 16C4-235F

Sequence of Human FcγRIIB, recombinantly expressed extracellular domain (human) (P31994 43-217): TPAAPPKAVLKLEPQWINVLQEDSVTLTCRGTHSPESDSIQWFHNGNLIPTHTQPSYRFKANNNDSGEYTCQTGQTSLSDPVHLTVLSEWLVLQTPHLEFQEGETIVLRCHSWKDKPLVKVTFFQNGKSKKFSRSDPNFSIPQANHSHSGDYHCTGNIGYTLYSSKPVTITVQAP
Sequence of Human FcγRIIA, recombinantly expressed extracellular domain (human) (P12318 34-217): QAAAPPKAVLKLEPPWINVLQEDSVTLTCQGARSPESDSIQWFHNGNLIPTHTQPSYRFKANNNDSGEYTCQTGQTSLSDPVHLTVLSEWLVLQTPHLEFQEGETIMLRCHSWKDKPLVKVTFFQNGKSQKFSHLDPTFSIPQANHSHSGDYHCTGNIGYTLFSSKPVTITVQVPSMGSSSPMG

Row | Kd [1] [µM] | Kd [2] [µM] | Kd [3] [µM] | Kd [4] [µM] | Kd [5] [µM] | Kd [6] [µM] | Kd [7] [µM] | Kd [8] [µM] | Kd [9] [µM] | Substance
1 | 6.98 | 17.1 | 5.14 | 2.67 | 9.24 | 8.65 |  |  |  | 16C4 Fc variant antibody comprising the L234F/L235Y/P331S amino acid substitutions
2 |  | 14.5 | 0.574 | 1.47 | 6.36 |  | 0.329 | 0.019 |  | 16C4 affinity matured anti-CD19 IgG antibody
3 | 6.36 | 6.81 | 4.61 | 2.82 | 10.9 |  | 11.1 |  | 1.53 | 16C4 Fc variant antibody comprising the L234F/L235F/P331S amino acid substitutions

From patent US20180273621A1
